According to FireProtDB (doi:10.1021/bi100877y):

Settings: Escherichia coli (strain K12); pH 7; Thermal; DSC; phosphate 50 mM; whole UniProt chain shown

B1: Outer membrane porin C wild type, P06996 (protein)
chain: MKVKVLSLLVPALLVAGAANAAEVYNKDGNKLDLYGKVDGLHYFSDNKDVDGDQTYMRLGFKGETQVTDQLTGYGQWEYQIQGNSAENENNSWTRVAFAGLKFQDVGSFDYGRNYGVVYDVTSWTDVLPEFGGDTYGSDNFMQQRGNGFATYRNTDFFGLVDGLNFAVQYQGKNGNPSGEGFTSGVTNNGRDALRQNGDGVGGSITYDYEGFGIGGAISSSKRTDAQNTAAYIGNGDRAETYTGGLKYDANNIYLAAQYTQTYNATRVGSLGWANKAQNFEAVAQYQFDFGLRPSLAYLQSKGKNLGRGYDDEDILKYVDVGATYYFNKNMSTYVDYKINLLDDNQFTRDAGINTDNIVALGLVYQF
Tm: 87 °C | unfolding enthalpy (calorimetric): 328 kcal/mol
